Source: PMC11220700, “Activation and Purification of ß‐Glucocerebrosidase by Exploiting its Transporter LIMP‐2 – Implications for Novel Treatment Strategies in Gaucher's and Parkinson's Disease” (Advanced Science, 2024)

Target: imiglucerase/Cerezyme (recombinant GCase, Sanofi Genzyme) (Homo sapiens) (UniProt P04062)
Assay: MST
Conditions: Fc fusion

Sequence of imiglucerase/Cerezyme (recombinant GCase, Sanofi Genzyme) (Homo sapiens) (P04062 other isoform, or with tags, fused parts or gaps): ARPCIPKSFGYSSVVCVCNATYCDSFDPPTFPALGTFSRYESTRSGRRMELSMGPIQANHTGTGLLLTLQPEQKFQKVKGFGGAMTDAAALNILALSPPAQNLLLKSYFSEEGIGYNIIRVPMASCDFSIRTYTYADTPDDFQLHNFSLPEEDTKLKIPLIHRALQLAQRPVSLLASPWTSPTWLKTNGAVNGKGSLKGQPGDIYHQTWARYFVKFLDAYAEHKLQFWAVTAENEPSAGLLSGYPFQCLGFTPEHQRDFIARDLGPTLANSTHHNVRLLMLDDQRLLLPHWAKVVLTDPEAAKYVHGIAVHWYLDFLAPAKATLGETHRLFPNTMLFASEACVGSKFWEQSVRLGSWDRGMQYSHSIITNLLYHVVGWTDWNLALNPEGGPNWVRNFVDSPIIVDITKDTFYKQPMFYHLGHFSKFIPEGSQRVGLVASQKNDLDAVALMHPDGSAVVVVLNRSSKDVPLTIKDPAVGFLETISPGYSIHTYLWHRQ
Sequence of sLIMP‐2‐FC (Sino Biological #11063‐H03H) (Q14108 27-432): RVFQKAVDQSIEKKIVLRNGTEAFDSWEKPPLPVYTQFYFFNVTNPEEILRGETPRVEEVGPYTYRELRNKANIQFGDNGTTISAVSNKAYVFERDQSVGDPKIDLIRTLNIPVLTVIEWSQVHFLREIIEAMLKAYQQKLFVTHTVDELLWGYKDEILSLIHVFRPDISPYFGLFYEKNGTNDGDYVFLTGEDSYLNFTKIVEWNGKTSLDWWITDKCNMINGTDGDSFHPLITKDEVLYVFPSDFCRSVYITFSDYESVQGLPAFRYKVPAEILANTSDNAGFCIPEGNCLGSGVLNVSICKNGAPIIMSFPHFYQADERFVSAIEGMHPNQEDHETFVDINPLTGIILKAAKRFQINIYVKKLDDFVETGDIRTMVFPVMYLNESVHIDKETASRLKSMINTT

## sLIMP‐2‐FC (Sino Biological #11063‐H03H)
  Kd: 1.38 µM
